From patent US20110293610A1 (published 2011)

T1: TNF-beta (human, UniProt P01374 35-205)
T1 construct: also called TNFβ; Tumour Necrosis Factor-beta
T1 sequence (looked up): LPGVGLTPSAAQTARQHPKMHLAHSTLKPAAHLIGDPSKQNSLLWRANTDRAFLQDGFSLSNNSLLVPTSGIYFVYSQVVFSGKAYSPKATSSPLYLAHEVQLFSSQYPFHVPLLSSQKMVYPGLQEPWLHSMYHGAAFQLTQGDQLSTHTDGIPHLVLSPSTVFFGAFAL


Columns and labels:
LIGHT = LIGHT (human, UniProt O43557 74-240, limits assumed); assay: phage ELISA
[1] = target: T2, B Lymphocyte Stimulator, soluble form (human) (human, UniProt Q9Y275 134-285, biotinylated with NHS-biotin where used as biotinylated B Lymphocyte Stimulator); assay: phage ELISA
T2 construct: Coated on plastic, captured on streptavidin plates, amine-coupled to a CM5 chip or free in solution, depending on the assay; also called BLyS; immobilized B Lymphocyte Stimulator

TRAIL = target: T3, TRAIL (human, UniProt P50591 114-281); assay: phage ELISA
T3 construct: also called TNF-related apoptosis inducing ligand

TNF-beta = target: T1, TNF-beta; assay: phage ELISA
TNF-alpha = target: T4, TNF-alpha (human, UniProt P01375 77-233); assay: phage ELISA
T4 construct: also called TNFα; TNF-α

[2] = target: T5, biotinylated B Lymphocyte Stimulator, soluble form (human, UniProt Q9Y275 134-285, biotinylated with NHS-biotin, molar ratio 20:1 biotin:protein); assay: phage scFv, receptor binding inhibition on IM9 cells
T5 construct: also called bio-B Lymphocyte Stimulator; free B Lymphocyte Stimulator
Protocol: All of the unique phage scFvs from panel 2 were assessed for their ability to inhibit B Lymphocyte Stimulator binding to its cognate receptor on IM9 cells. The biotinylation of B Lymphocyte Stimulator, maintenance of IM9 cells and receptor binding inhibition assay were performed as described in Example 3.

T4 sequence (P01375 77-233 limits assumed): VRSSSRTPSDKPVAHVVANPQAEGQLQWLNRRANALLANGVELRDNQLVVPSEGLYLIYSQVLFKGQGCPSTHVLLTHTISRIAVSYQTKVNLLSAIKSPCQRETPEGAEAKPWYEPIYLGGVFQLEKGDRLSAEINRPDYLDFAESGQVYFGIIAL
LIGHT, sequence (O43557 74-240 limits assumed): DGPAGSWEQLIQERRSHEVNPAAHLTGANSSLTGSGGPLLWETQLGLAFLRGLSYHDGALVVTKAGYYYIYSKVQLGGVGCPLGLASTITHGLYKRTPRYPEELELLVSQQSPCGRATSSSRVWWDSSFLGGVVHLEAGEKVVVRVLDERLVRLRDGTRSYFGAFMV
T3 sequence (P50591 114-281 limits assumed): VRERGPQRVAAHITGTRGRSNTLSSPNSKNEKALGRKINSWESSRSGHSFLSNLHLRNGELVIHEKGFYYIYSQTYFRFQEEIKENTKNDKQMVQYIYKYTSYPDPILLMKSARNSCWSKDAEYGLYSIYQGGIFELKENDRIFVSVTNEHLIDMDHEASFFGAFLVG

Binder | binding result (LIGHT) | binding result [1] | binding result (TRAIL) | binding result (TNF-beta) | binding result (TNF-alpha) | binding result [2]
I068C08 (scFv) scFv: QVQLQQSGAEVKKPGSSVKVSCQASGGSFSREGISWVRQAPGHGLEWMGRIIPVLGVADYAQKFQGRVKISVDRLTSVAYMELTSLRFEDTAVYYCAREGMNDFINSHHYYTMDAWGQGTLVTVSSGGGGSGGGGSGGGGSAQAVLTQPSSVSGAPGQRVTISCTGSSSNIGAGYDVHWYQQLPGTAPKLLIYGNSNRPSGVPDRFSGSKSGTSASLAITGLQAEDEADYYCQSYDSSLSGSVFGGGTKLTVLG | no binding | binds | no binding | no binding | no binding | 
I068F03 (scFv) scFv: EVQLVQSGADVKKPGASVKVSCKASHYPFTTYGVSWVRQAPGQGLEWMGWISNYNGHTRYAPKFQGRVTLTTDTLTNTAFMELKSLTSDDTAIYYCARAGNEYGHTERPADYWGKGTMVTVSSGGGGSGGGGSGGGGSAQAVLTQPSSVSGAPGQRVTISCTGSSSNIGAGYDVHWYQQLPGTTPKLLISRNNNRPPGVPDRFSGSKSGTSASLAITGLQAEDEADYYCQSYDTTLRGWVFGGGTKVTVLG | no binding | binds | no binding | no binding | no binding | 
I065D04 (scFv) scFv: QVQLQESGPGLVKPSETLSLTCTVSGGSISSGYYWGWVRQPPGQGLEWIGSIYHSGSTYHNPSLKSRVTISMDTSKNQFSLNLNSVTAADTAVYYCARGKGYYDILTGYYRDNWFDPWGRGTLVTVSSGGGGSGGGGSGGGGSQSVLTQPASVSGSPGQSITISCTGTSSDVGGYNYVSWYQQHPGKAPKLMIYEGSKRPSGVSNRFSGSKSGNTASLTISGLQAEDEADYYCSSYTTRSTRVFGGGTKLTVLG [I065D04, listing 2 of 2 here] |  |  |  |  |  | binds
I003C06 (scFv) scFv: QVQLVQSGAEVKKPGSSVKVSCRASGGSFNHAISWVRQAPGRGLEWMGGILPMYGTANYAQKFQGRVTITADKLTNTVYMDLSRLRYEDTAVYYCARELGLSIVGATTGALDMWGKGTLVTVSSGGGGSGGGGSGGGGSALPVLTQPPSVSVAPGQTATLTCGGTNFGRQSVHWYQQKPGQAPVLAIYHDDVRPSGIPERLSGSKSGNTATLTISRVEAGDEAAYYCQVWDSGSDVVVFGGGTKLTVLG |  |  |  |  |  | binds
I026C04 (scFv) scFv: QVQLVQSGAEVKKPGSSVKVSCRASGGSFNHAISWVRQAPGRGLEWMGGILPMYGTANYAQKFQGRVTITADKLTNTVYMDLSRLRYEDTAVYYCARELGLSIVGATTGALDMWGKGTLVTVSSGGGGSGGGGSGGGGSAQSVLTQPPSVSAAPGQKVTISCSGSSSNIGNNYVSWYQQIPGTAPKLLIYENNKRPSGIPDRFSGSKSGASATLDITGLQTGDEADYYCGTWHSSQVVFGGGTKLTVLG |  |  |  |  |  | binds
I025B06 (scFv) scFv: QVQLVQSGAEVKKPGSSVKVSCRASGGSFNHAISWVRQAPGRGLEWMGGILPMYGTANYAQKFQGRVTITADKLTNTVYMDLSRLRYEDTAVYYCARELGLSIVGATTGALDMWGKGTLVTVSSGGGGSGGGGSGGGGSAQSVLTQPPSVSAAPGQKVTISCSGSSSNIGNNYVSWYQQIPGTAPKLLIYENNKRPSGIPDRFSGSKSGASAALDITGLQTGDEADYYCGTWHSSQVVFGGGTKLTVLG |  |  |  |  |  | binds
I073F04 (scFv) scFv: QVQLQQSGAEVKKPGSSVKVSCKASGGTFRSYAFSWVRQAPGQGLEWMGYIVPVFGTATYAQNFQGRVTITADELTTTAFMELSSLTSEDTAVYYCARSLATRPLGMDVWGRGTTVTVSSGGGGSGGGGSGGGGSQSVLTQPASVSGSPGQSITISCTGTSSDVGGYNYVSWYQQHPGKAPKLMIYEGSKRPSGVSNRFSGSKSGNTASLTISGLQAEDEADYYCSSYTTRSTRVFGGGTKLTVLG |  |  |  |  |  | binds

Next, values leading:

binding result (LIGHT) | binding result [1] | binding result (TRAIL) | binding result (TNF-beta) | binding result (TNF-alpha) | binding result [2] | Binder
no binding | binds | no binding | no binding | no binding |  | I065D04 (scFv) scFv: QVQLQESGPGLVKPSETLSLTCTVSGGSISSGYYWGWVRQPPGQGLEWIGSIYHSGSTYHNPSLKSRVTISMDTSKNQFSLNLNSVTAADTAVYYCARGKGYYDILTGYYRDNWFDPWGRGTLVTVSSGGGGSGGGGSGGGGSQSVLTQPASVSGSPGQSITISCTGTSSDVGGYNYVSWYQQHPGKAPKLMIYEGSKRPSGVSNRFSGSKSGNTASLTISGLQAEDEADYYCSSYTTRSTRVFGGGTKLTVLG [I065D04, listing 1 of 2 here]
no binding | binds | no binding | no binding | no binding |  | I069B07 (scFv) scFv: QVQLVQSGAEVKKPGASVKVSCKASGYTFTSYGISWVRQAPGQGLEWMGWISAYNGNTNYAQKLQGRVTMTTDTSTSTAYMELRSLRSEDTAVYYCARMEYDILTGYYGGYFDYWGQGTMVTVSSGGGGSGGGGSGGGGSQSVLTQPASVSGSPGQSITISCTGTSSDVGGYNYVSWYQQHPGKAPKLMIYEGSKRPSGVSNRFSGSKSGNTASLTISGLQAEDEADYYCSSYTTRSTRVFGGGTKLTVLG
 |  |  |  |  | binds | I071B03 (scFv) scFv: QVQLQQSGAEVKKPGASVKVSCKASGYTFTKYTMHWVRQAPGQGPEWMGWINGGSGDTKYSRKFQGRVTITKDTSASAAYMELSSLGSEDTALYYCARATYDPLTGYSFDGFDIWGQGTMVTVSSGGGGSGGGGSGGGGSQSVLTQPASVSGSPGQSITISCTGTSSDVGGYNYVSWYQQHPGKAPKLMIYEGSKRPSGVSNRFSGSKSGNTASLTISGLQAEDEADYYCSSYTTRSTRVFGGGTKLTVLD
 |  |  |  |  | binds | I075A02 (scFv) scFv: QVQLVQSGAEVKKPGSSVKVSCRASGGSFNHAISWVRQAPGRGLEWMGGILPMYGTANYAQKFQGRVTITADKLTNTVYMDLSRLRYEDTAVYYCARELGLSIVGATTGALDMWGRGTLVTVSSGGGGSGGGGSGGGGSAQSVVTQPPSASGTPGQRVTVSCSGGRSNIGSNTVSWYQQLPGTAPKLLIYSNDERPSGVPDRFSGSNSGTSASLAISGLQSEDEADYYCAAWDDSLNGVAFGGGTKLTVLG
 |  |  |  |  | binds | I025B09 (scFv) scFv: QVHLVQSGAEVKKPGSSVKVSCRASGGSFNHAISWVRQAPGRGLEWMGGILPMYGTANYAQKFQGRVTITADKLTNTVYMDLSRLRYEDTAVYYCARELGLSIVGATTGALDMWGKGTLVTVSSGGGGSGGGGSGGGGSAQSVLTQPPSVSAAPGQKVTISCSGSSSNIGNNYVSWYQQIPGTAPKLLIYENNKRPSGIPDRFSGSKSGASATLDITGLQTGDEADYYCGTWHSSQVVFGGGTKLTVLG
no binding | binds | no binding | no binding | no binding |  | I064C07 (scFv) scFv: QVQLVQSGAEVKKPGSSVKVSCKASGGTFSSYAISWVRQAPGQGLEWMGGIIPIFGTANYAQKFQGRVTITADDLTRTAYMEMSSLKFEDTAVYYCASSEGTIFGVDWGRGTLVTVSSGGGGSGGGGSGGGGSDIQMTQSPSFLSASVGDRVTITCRASQGINNYLAWYQQKPGRAPKLLMYAASSLQSGVPSRFSGSGSGTDFTLTISSLQPEDFATYYCLQDSDYPLTFGGGTKLEIKR
